Laboratory results from patent US20110110962A1 (INSERM INSTITUT NATIONAL DE LA SANT ET DE LA RECHERCHE M …, published 2011).

Experiments:
TLR5 of mice (mouse) = TLR5 of mice (mouse) (UniProt Q9JLF7); test: cell-based or functional assay
TLR5 of mice = TLR5 of mice (mouse, UniProt Q9JLF7 27-859); test: cell-based or functional assay
Chain of TLR5 of mice (Q9JLF7 27-859): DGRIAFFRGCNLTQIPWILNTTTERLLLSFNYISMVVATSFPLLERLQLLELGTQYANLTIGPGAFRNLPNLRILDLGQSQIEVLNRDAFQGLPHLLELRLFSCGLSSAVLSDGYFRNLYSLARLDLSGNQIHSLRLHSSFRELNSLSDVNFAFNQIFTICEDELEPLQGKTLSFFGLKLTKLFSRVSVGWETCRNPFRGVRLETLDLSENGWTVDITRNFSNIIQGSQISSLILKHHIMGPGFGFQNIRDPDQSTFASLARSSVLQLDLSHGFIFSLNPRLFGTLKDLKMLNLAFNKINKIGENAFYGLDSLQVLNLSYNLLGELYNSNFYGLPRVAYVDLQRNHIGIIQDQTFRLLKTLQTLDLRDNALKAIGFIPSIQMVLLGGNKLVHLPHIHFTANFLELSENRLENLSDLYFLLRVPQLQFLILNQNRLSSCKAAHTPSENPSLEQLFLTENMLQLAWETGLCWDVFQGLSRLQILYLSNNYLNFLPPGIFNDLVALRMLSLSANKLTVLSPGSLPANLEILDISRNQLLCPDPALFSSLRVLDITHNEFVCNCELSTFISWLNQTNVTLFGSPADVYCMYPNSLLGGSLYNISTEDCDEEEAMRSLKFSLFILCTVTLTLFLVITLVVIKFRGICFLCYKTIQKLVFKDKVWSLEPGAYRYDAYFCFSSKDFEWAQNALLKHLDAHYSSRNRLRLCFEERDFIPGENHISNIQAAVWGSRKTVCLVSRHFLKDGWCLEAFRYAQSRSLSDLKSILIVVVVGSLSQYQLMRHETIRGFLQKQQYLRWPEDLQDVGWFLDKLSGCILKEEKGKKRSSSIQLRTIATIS

Chain of TLR5 of mice (mouse) (Q9JLF7 27-859): as above

FliCΔ174-400 flagellin (from UniProt P06175 2-493) (ligand)
CCL20 mRNA pulmonary levels 2 h after i.n. instillation, against mock-treated animals (TLR5 of mice (mouse)): 30 fold | serum CCL20 after 10 µg i.v. (TLR5 of mice (mouse)): 0.85 ng/mL | systemic pro-inflammatory effects (serum CCL20 and CXCL2 after i.v. injection), against wild type FliC (TLR5 of mice (mouse)): 100 fold

B1: FliCΔ191-352 (ligand)
chain: AQVINTNSLSLLTQNNLNKSQSALGTAIERLSSGLRINSAKDDAAGQAIANRFTANIKGLTQASRNANDGISIAQTTEGALNEINNNLQRVRELAVQSANSTNSQSDLDSIQAEITQRLNEIDRVSGQTQFNGVKVLAQDNTLTIQVGANDGETIDIDLKQINSQTLGLDTLNVQQKYKVSDTAATVTGYLELEDGTSKTALNKLGGADGKTEVVSIGGKTYAASKAEGHNFKAQPDLAEAAATTTENPLQKIDAALAQVDTLRSDLGAVQNRFNSAITNLGNTVNNLTSARSRIEDSDYATEVSNMSRAQILQQAGTSVLAQANQVPQSVLSLLR
CCL20 mRNA pulmonary levels 2 h after i.n. instillation, against mock-treated animals (TLR5 of mice): ~30 fold

B2: Salmonella enterica Serovar Typhimurium ATCC14028 flagellin FliC (ligand)
chain: AQVINTNSLSLLTQNNLNKSQSALGTAIERLSSGLRINSAKDDAAGQAIANRFTANIKGLTQASRNANDGISIAQTTEGALNEINNNLQRVRELAVQSANSTNSQSDLDSIQAEITQRLNEIDRVSGQTQFNGVKVLAQDNTLTIQVGANDGETIDIDLKQINSQTLGLDTLNVQQKYKVSDTAATVTGYADTTIALDNSTFKASATGLGGTDQKIDGDLKFDDTTGKYYAKVTVTGGTGKDGYYEVSVDKTNGEVTLAGGATSPLTGGLPATATEDVKNVQVANADLTEAKAALTAAGVTGTASVVKMSYTDNNGKTIDGGLAVKVGDDYYSATQNKDGSISINTTKYTADDGTSKTALNKLGGADGKTEVVSIGGKTYAASKAEGHNFKAQPDLAEAAATTTENPLQKIDAALAQVDTLRSDLGAVQNRFNSAITNLGNTVNNLTSARSRIEDSDYATEVSNMSRAQILQQAGTSVLAQANQVPQNVLSLLR
CCL20 mRNA pulmonary levels 2 h after i.n. instillation, against mock-treated animals (TLR5 of mice): ~30 fold

B3: FliCΔ204-292 (ligand)
chain: AQVINTNSLSLLTQNNLNKSQSALGTAIERLSSGLRINSAKDDAAGQAIANRFTANIKGLTQASRNANDGISIAQTTEGALNEINNNLQRVRELAVQSANSTNSQSDLDSIQAEITQRLNEIDRVSGQTQFNGVKVLAQDNTLTIQVGANDGETIDIDLKQINSQTLGLDTLNVQQKYKVSDTAATVTGYADTTIALDNSTFKAALTAAGVTGTASVVKMSYTDNNGKTIDGGLAVKVGDDYYSATQNKDGSISINTTKYTADDGTSKTALNKLGGADGKTEVVSIGGKTYAASKAEGHNFKAQPDLAEAAATTTENPLQKIDAALAQVDTLRSDLGAVQNRFNSAITNLGNTVNNLTSARSRIEDSDYATEVSNMSRAQILQQAGTSVLAQANQVPQNVLSLLR
CCL20 mRNA pulmonary levels 2 h after i.n. instillation, against mock-treated animals (TLR5 of mice): ~30 fold
